# Measurements from article PMC6814019 (Molecular cell, 2019).
# Values joined by “and” are separate entries in the source; they are usually repeats but may differ in a detail not shown here. Equal entries are not always repeated.
# B1: C. elegans MORC-1 (8x-His-MBP-CeMORC) (natural protein, UniProt Q23243 1-845, looked up)
# chain: MPNDTNGDDYKKLEKASVNLNFLKSNSHTHIGPLSAIAELVDNAYDADARDLHIDFLDINNEQFLELRDDGLGMAREEALHAITFGHSAKCSYKIGRYGNGLKSGAFHLGRELLLVTKKDGIITALLISHRFHEDQGLTNSVFVPCPSFDLDGIPICQTESEKDRFNLEMKIIGKYAPLGSRTLAELADKITGSTGTIIIIGNLRRSVTGELAINTTKDPTDIIVDSGEENKPWRESLRKYLEFIYLKPRMRIHVRGEQVLPKRISENWIAKKQQLISGDQFTAAYNKILDEKNETVKKCEEEKALVMSEIGGTNYTSVRREDRANQKSLRLRVDTSQKNLDSAIADRDAFKKEGKSEKSFHLNMGIETKDRSNNGIHFYINNRLILWGNKEAKFFSKFANSIGISMFLSLDYSLFSAAQNKQGFDHVKDFQVLVRKCNDALRDYSMYLEKSWIPTHLKNTWNVRIYEGDDVWAVLWGVYGYNNTTSTTCVQTHDSARDQVMWTTCGIWKLCQMCRTWIKASRPNEIVGSNDDFFCCENVNHHGCRTIVAEDNDFSKLPEKYDHILPQKRLTNSAPSSSDSQNSIRSASSCSSSSRLLNVAKIESHERIHSSTGGHRLGESFSTTSVKMEPIPNNAHDSHIAEVQRRHSTGRAISPAVSEISRRAGTAPSSQLDMIMGEESDESQEALTIRAPRQRAKRPIERVSRRNRRDQSDDDSDSENEERYATAPKKSKVKGKAVVRAPKMTREKWLEEMLNQFLTAHGEQPLPKNGQRDFDPTNIVEQTSRRNFKNNQRIVDAQQAIMRQIGSVLDHLKRNPTHNFKIPASGTVEEKLKNIEHQIKGKKK
# Target: the molecule itself
# Test: native MS
protein,measurement,value
B1,stoichiometry N,2 and 3 and 4
